The record followed here is patent USRE47150 (Bayer, dated 2018).

In test [1] the target is T1, mouse tissue factor pathway inhibitor (TFPI) (mouse, UniProt O54819 29-289, limits assumed).
T1 construct: bought; also called mTFPI; murine TFPI
T1 sequence (looked up): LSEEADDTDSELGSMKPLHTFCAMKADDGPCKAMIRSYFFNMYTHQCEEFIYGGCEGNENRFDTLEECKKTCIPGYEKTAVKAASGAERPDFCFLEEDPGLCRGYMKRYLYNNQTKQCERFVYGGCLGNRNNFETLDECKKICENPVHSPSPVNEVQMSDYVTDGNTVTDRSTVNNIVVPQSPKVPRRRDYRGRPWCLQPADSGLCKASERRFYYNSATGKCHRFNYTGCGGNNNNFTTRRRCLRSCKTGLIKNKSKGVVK
Description: SPR, TFPI immobilized.

The target in test [2] is recombinant TFPI of the FXa restoring assay (human, mouse or rat; not specified for Tables 9 and 10). Description: cell-based or functional assay.
Test [3] addresses T1, mouse tissue factor pathway inhibitor …. Kind of test: SPR, TFPI immobilized. This is another data set of the same source.
Test [4] addresses T2, human tissue factor pathway inhibitor (TFPI) (human, UniProt P10646 29-304, limits assumed).
T2 construct: bought; also called hTFPI; human TFPI
T2 sequence (looked up): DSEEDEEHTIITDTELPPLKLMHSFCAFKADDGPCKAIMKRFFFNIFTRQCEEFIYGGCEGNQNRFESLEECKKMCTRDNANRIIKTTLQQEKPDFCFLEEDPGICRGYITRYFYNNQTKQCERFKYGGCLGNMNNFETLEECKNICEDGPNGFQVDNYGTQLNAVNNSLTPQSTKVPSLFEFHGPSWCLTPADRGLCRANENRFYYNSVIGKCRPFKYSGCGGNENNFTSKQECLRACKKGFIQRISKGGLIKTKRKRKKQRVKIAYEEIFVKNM
Kind of test: SPR, TFPI immobilized.

In test [5] the target is T2, human tissue factor pathway inhibitor …. Description: SPR, TFPI immobilized. The source holds these as a separate data set.
For test [6] the target is unchanged. Description: competitive ELISA. Background: In an ELISA, binding on a coated surface is turned into a signal by an enzyme label.
For test [7], the target named is T1, mouse tissue factor pathway inhibitor …. Kind of test: competitive ELISA.

Like-named read-outs stand apart in the source and are kept apart here.

B1: 4B7 wild-type Fab (Fab, V domains shown)
VH: QVQLQQSGPGLVKPSQTLSLTCAISGDSVSSNSAAWSWIRQSPGRGLEWLGIIYKRSKWYNDYAVSVKSRITINPDTSKNQFSLQLNSVTPEDTAVYYCARWHSDKHWGFDYWGQGTLVTVSS
VL: DIVMTQSPLSLPVTPGEPASISCRSSQSLVFSDGNTYLNWYLQKPGQSPQLLIYKGSNRASGVPDRFSGSGSGTDFTLKISRVEAEDVGVYYCQQYDSYPLTFGQGTKVEIKR
notes: Fab with HA (or c-myc) and 6xHis tag at the C-terminus of the heavy chain; also called 4B7wt; parental 4B7
The Kd is the concentration at which binding is half-saturated. Read a low Kd as higher affinity. As a reminder, the koff is a measure of how fast the partners let go of each other. A low value points to a long-lived complex. As usually defined, the kon is the rate constant with which the complex forms. In test [1], B1 displayed a KD fold improvement of 1 fold, a Kd of 54.7 nM, a koff of 0.172 s⁻¹ and a kon of 3.15e+06 M⁻¹ s⁻¹. Further, in test [2], the “IC50, FXa restoring assay” value was 1.46 µg/mL and the “Improvement vs parental, FXa restoring assay” value (from here on “Improvement vs parental”) was found to be 1 fold. In test [3], the Improvement was found to be 1 fold; the affinity, expressed as Kd, was 58.6 nM; the off-rate constant (koff) was 0.128 s⁻¹; the kon was found to be 2.18e+06 M⁻¹ s⁻¹. Besides, in test [4], the Improvement turned out to be 1 fold, the Kd was determined as 11.1 nM, the koff amounted to 0.0084 s⁻¹ and the kon came out at 756000 M⁻¹ s⁻¹. In test [5], the KD fold improvement stood at 1 fold, the Kd turned out to be 11.1 nM, the koff was determined as 0.0084 s⁻¹ and the kon is 756000 M⁻¹ s⁻¹.

B2: 2A8 HC_G33P (Fab, V domains shown)
VH: QVQLVESGGGLVQPGGSLRLSCAASGFTFRSYPMSWVRQAPGKGLEWVSSIRGSSSSTYYADSVKGRFTISRDNSKNTLYLQMNSLRAEDTAVYYCARKYRYWFDYWGQGTLVTVSS
VL: DIELTQPPSVSVAPGQTARISCSGDNLRNYYAHWYQQKPGQAPVVVIYYDNNRPSGIPERFSGSNSGNTATLTISGTQAEDEADYYCQSWDDGVPVFGGGTKLTVLG
notes: also called 2A8-1
The molecule B2 showed a variant/wild-type in test [6] of 5.1 ratio. In test [7], the variant/wild-type came to 2.9 ratio. In addition, in test [3], the Improvement turned out to be 2.21 fold, the Kd turned out to be 1.59 nM, the koff was found to be 0.00145 s⁻¹ and the kon is 912000 M⁻¹ s⁻¹. In test [4], the Improvement amounted to 2.7 fold, the Kd came out at 0.827 nM, the koff worked out at 0.00224 s⁻¹ and the kon was found to be 2.71e+06 M⁻¹ s⁻¹.

B3: 2A8 LC_A32N (Fab, V domains shown)
VH: QVQLVESGGGLVQPGGSLRLSCAASGFTFRSYGMSWVRQAPGKGLEWVSSIRGSSSSTYYADSVKGRFTISRDNSKNTLYLQMNSLRAEDTAVYYCARKYRYWFDYWGQGTLVTVSS
VL: DIELTQPPSVSVAPGQTARISCSGDNLRNYYNHWYQQKPGQAPVVVIYYDNNRPSGIPERFSGSNSGNTATLTISGTQAEDEADYYCQSWDDGVPVFGGGTKLTVLG
notes: also called 2A8-11
Turning to B3, in test [6], the variant/wild-type was 3.5 ratio. The molecule further came in with a variant/wild-type in test [7] of 2 ratio. Moreover, in test [4], the Improvement came to 1.47 fold, binding was characterised by a dissociation constant (Kd) of 1.52 nM, the koff came out at 0.0041 s⁻¹ and the kon is 2.7e+06 M⁻¹ s⁻¹.

B4: 2A8 LC_V96G (Fab, V domains shown)
VH: QVQLVESGGGLVQPGGSLRLSCAASGFTFRSYGMSWVRQAPGKGLEWVSSIRGSSSSTYYADSVKGRFTISRDNSKNTLYLQMNSLRAEDTAVYYCARKYRYWFDYWGQGTLVTVSS
VL: DIELTQPPSVSVAPGQTARISCSGDNLRNYYAHWYQQKPGQAPVVVIYYDNNRPSGIPERFSGSNSGNTATLTISGTQAEDEADYYCQSWDDGVPGFGGGTKLTVLG
Consider B4, for which the values for the variant/wild-type in test [6] and in test [7] were 3.2 ratio and 1.2 ratio, respectively.

B5: 2A8 HC_I51D (Fab, V domains shown)
VH: QVQLVESGGGLVQPGGSLRLSCAASGFTFRSYGMSWVRQAPGKGLEWVSSDRGSSSSTYYADSVKGRFTISRDNSKNTLYLQMNSLRAEDTAVYYCARKYRYWFDYWGQGTLVTVSS
VL: DIELTQPPSVSVAPGQTARISCSGDNLRNYYAHWYQQKPGQAPVVVIYYDNNRPSGIPERFSGSNSGNTATLTISGTQAEDEADYYCQSWDDGVPVFGGGTKLTVLG
notes: also called 2A8-12
Molecule B5 came in with a variant/wild-type in test [6] of 3.9 ratio. The molecule further returned a variant/wild-type in test [7] of 1.4 ratio. Besides, in test [4], the Improvement was determined as 1.63 fold, binding was characterised by a dissociation constant (Kd) of 1.37 nM, the koff stood at 0.00495 s⁻¹ and the kon came to 3.61e+06 M⁻¹ s⁻¹.

B6: 2A8 HC_K99V (Fab, V domains shown)
VH: QVQLVESGGGLVQPGGSLRLSCAASGFTFRSYGMSWVRQAPGKGLEWVSSIRGSSSSTYYADSVKGRFTISRDNSKNTLYLQMNSLRAEDTAVYYCARVYRYWFDYWGQGTLVTVSS
VL: DIELTQPPSVSVAPGQTARISCSGDNLRNYYAHWYQQKPGQAPVVVIYYDNNRPSGIPERFSGSNSGNTATLTISGTQAEDEADYYCQSWDDGVPVFGGGTKLTVLG
notes: also called 2A8-10
Consider B6, for which, in test [2], the “IC50, FXa restoring assay” value came out at 0.39 µg/mL and the “Improvement vs parental” value is 1.6 fold. Also, the variant/wild-type in test [6] amounted to 7.5 ratio. This molecule also registered a variant/wild-type in test [7] of 3.9 ratio. In test [4], this molecule yielded an Improvement of 2.25 fold, a Kd of 0.995 nM, a koff of 0.00254 s⁻¹ and a kon of 2.55e+06 M⁻¹ s⁻¹.

B7: 2A8 HC_I51E (Fab, V domains shown)
VH: QVQLVESGGGLVQPGGSLRLSCAASGFTFRSYGMSWVRQAPGKGLEWVSSERGSSSSTYYADSVKGRFTISRDNSKNTLYLQMNSLRAEDTAVYYCARKYRYWFDYWGQGTLVTVSS
VL: DIELTQPPSVSVAPGQTARISCSGDNLRNYYAHWYQQKPGQAPVVVIYYDNNRPSGIPERFSGSNSGNTATLTISGTQAEDEADYYCQSWDDGVPVFGGGTKLTVLG
notes: also called 2A8-6
For B7, in test [2], the “IC50, FXa restoring assay” value came out at 0.76 µg/mL and the “Improvement vs parental” value amounted to 0.9 fold. In test [6], this molecule registered a variant/wild-type of 7.3 ratio. In test [7], this molecule had a variant/wild-type of 0.7 ratio. In test [4], this molecule returned an Improvement of 1.78 fold, a Kd of 1.26 nM, a koff of 0.00162 s⁻¹ and a kon of 1.29e+06 M⁻¹ s⁻¹.

B8: 2A8 LC_V96M (Fab, V domains shown)
VH: QVQLVESGGGLVQPGGSLRLSCAASGFTFRSYGMSWVRQAPGKGLEWVSSIRGSSSSTYYADSVKGRFTISRDNSKNTLYLQMNSLRAEDTAVYYCARKYRYWFDYWGQGTLVTVSS
VL: DIELTQPPSVSVAPGQTARISCSGDNLRNYYAHWYQQKPGQAPVVVIYYDNNRPSGIPERFSGSNSGNTATLTISGTQAEDEADYYCQSWDDGVPMFGGGTKLTVLG
B8: the results for the variant/wild-type in test [6] and in test [7] were 3.5 ratio and 1.5 ratio, respectively.

B9: 2A8 LC_D91K (Fab, V domains shown)
VH: QVQLVESGGGLVQPGGSLRLSCAASGFTFRSYGMSWVRQAPGKGLEWVSSIRGSSSSTYYADSVKGRFTISRDNSKNTLYLQMNSLRAEDTAVYYCARKYRYWFDYWGQGTLVTVSS
VL: DIELTQPPSVSVAPGQTARISCSGDNLRNYYAHWYQQKPGQAPVVVIYYDNNRPSGIPERFSGSNSGNTATLTISGTQAEDEADYYCQSWKDGVPVFGGGTKLTVLG
notes: also called 2A8-15
On to B9, for which, in test [2], the “IC50, FXa restoring assay” value was determined as 0.34 µg/mL and the “Improvement vs parental” value was 1.9 fold. This molecule registered a variant/wild-type in test [6] of 3.5 ratio. For the same molecule, the variant/wild-type in test [7] amounted to 1.4 ratio. In addition, in test [4], the Improvement is 4.64 fold, the Kd was 0.482 nM, the koff turned out to be 0.00209 s⁻¹ and the kon amounted to 4.33e+06 M⁻¹ s⁻¹.

B10: 2A8 HC_S55R (Fab, V domains shown)
VH: QVQLVESGGGLVQPGGSLRLSCAASGFTFRSYGMSWVRQAPGKGLEWVSSIRGSRSSTYYADSVKGRFTISRDNSKNTLYLQMNSLRAEDTAVYYCARKYRYWFDYWGQGTLVTVSS
VL: DIELTQPPSVSVAPGQTARISCSGDNLRNYYAHWYQQKPGQAPVVVIYYDNNRPSGIPERFSGSNSGNTATLTISGTQAEDEADYYCQSWDDGVPVFGGGTKLTVLG
notes: also called 2A8-8
B10 showed a variant/wild-type in test [6] of 4.4 ratio. Also, in test [7], the variant/wild-type came to 2.1 ratio. In test [4], this molecule yielded an Improvement of 2.44 fold, a Kd of 0.917 nM, a koff of 0.00394 s⁻¹ and a kon of 4.3e+06 M⁻¹ s⁻¹.

B11: 2A8 LC_V96W (Fab, V domains shown)
VH: QVQLVESGGGLVQPGGSLRLSCAASGFTFRSYGMSWVRQAPGKGLEWVSSIRGSSSSTYYADSVKGRFTISRDNSKNTLYLQMNSLRAEDTAVYYCARKYRYWFDYWGQGTLVTVSS
VL: DIELTQPPSVSVAPGQTARISCSGDNLRNYYAHWYQQKPGQAPVVVIYYDNNRPSGIPERFSGSNSGNTATLTISGTQAEDEADYYCQSWDDGVPWFGGGTKLTVLG
Consider B11, for which the variant/wild-type was found to be 4 ratio in test [6] and 4.3 ratio in test [7].

B12: 2A8 LC_N51V (Fab, V domains shown)
VH: QVQLVESGGGLVQPGGSLRLSCAASGFTFRSYGMSWVRQAPGKGLEWVSSIRGSSSSTYYADSVKGRFTISRDNSKNTLYLQMNSLRAEDTAVYYCARKYRYWFDYWGQGTLVTVSS
VL: DIELTQPPSVSVAPGQTARISCSGDNLRNYYAHWYQQKPGQAPVVVIYYDVNRPSGIPERFSGSNSGNTATLTISGTQAEDEADYYCQSWDDGVPVFGGGTKLTVLG
notes: also called 2A8-13
Molecule B12 yielded a variant/wild-type in test [6] of 4.4 ratio. Further, the variant/wild-type in test [7] amounted to 2 ratio. In test [4], this molecule registered an Improvement of 4.32 fold, a Kd of 0.518 nM, a koff of 0.0022 s⁻¹ and an on-rate (kon) of 4.26e+06 M⁻¹ s⁻¹.
